According to patent publication US20200347137A1:

B1: PL221G5 scFv-Fc (Fc fusion, part only; not given: linker and Fc, part only)
chain, part: EVQLLESGGGLVQPGGSLRLSCAASGFSFSSGYDMCWVRQAPGKGLEWIACIAAGSAGITYDANWAKGRFTISRDNSKNTLYLQMNSLRAEDTAVYYCARSAFSFDYAMDLWGQGTLVTVSSGGGGSGGGGSGGGGSGGGGSDIQMTQSPSTLSASVGDRVTITCQASQSISSHLNWYQQKPGKAPKLLIYKASTLASGVPSRFSGSGSGTEFTLTISSLQPDDFATYYCQQGYSWGNVDNVFGGGTKVEIK
B2: PL230C6 scFv-Fc (Fc fusion, part only; not given: linker and Fc, part only)
chain, part: QSVEESGGGLVQPGGSLRLSCTASGIDLNTYDMIWVRQAPGKGLEWVGIITYSGSRYYANWAKGRFTISKDNTKNTVYLQMNSLRAEDTAVYYCARDYMSGSHLWGQGTLVTVSSGGGGSGGGGSGGGGSGGGGSAYDMTQSPSSVSASVGDRVTIKCQASEDIYSFLAWYQQKPGKAPKLLIHSASSLASGVPSRFSGSGSGTDFTLTISSLQPEDFATYYCQQGYGKNNVDNAFGGGTKVEIK
B3: PL004B9 scFv-Fc (Fc fusion, part only; not given: linker and Fc, part only)
chain, part: EVQLVESGGGLVQPGGSLRLSCTVSGIDLSVINMGWVRQAPGKGLEWIGTITYVGNTYYASWAKGRFTISKTSTTVDLKITSPTTEDTAVYYCARESGTIYYSYFNLWGQGTLVTVSSGGGGSGGGGSGGGGSGGGGSAFELTQSPSSLSASVGDRVTIKCQASESISNYLSWYQQIPGKVPKLLIYYASNLASGVPSRFSGSGSGTDFTLTISSLQPEDVATYYCQSYYGGGSAYTFGGGTKVEIK

Target: PD-L1 recombinant protein (human) (UniProt Q9NZQ7)
Test: ForteBio Octet RED96, PD-L1 immobilised, antibody in solution

Chain of PD-L1 recombinant protein (human) (Q9NZQ7 19-238 limits assumed): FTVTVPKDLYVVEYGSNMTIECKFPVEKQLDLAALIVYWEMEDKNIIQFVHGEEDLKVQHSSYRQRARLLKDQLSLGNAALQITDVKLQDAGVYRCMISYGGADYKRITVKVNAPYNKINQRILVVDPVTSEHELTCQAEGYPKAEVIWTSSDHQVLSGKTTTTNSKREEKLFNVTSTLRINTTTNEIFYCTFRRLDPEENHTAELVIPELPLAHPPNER

Row | Kd [nM] | koff [s⁻¹] | kon [M⁻¹ s⁻¹] | Binder
1 | 0.597 | 0.000303 | 508000 | B1
2 | 0.917 | 0.000461 | 503000 | B2
3 | 1.42 | 0.00055 | 387000 | B3
